# From patent EP4682169A1
# Columns and labels:
# [1] = molecular target: human Claudin18.1 expressed on cells (human) (UniProt P56856); assay: flow cytometry on 293FT-hClaudin18.1 cells, antibody 10 ug/mL, cells with antibody binding/total cells
# [2] = molecular target: human Claudin18.2 expressed on cells (human) (UniProt P56856); assay: flow cytometry on 293FT-hClaudin18.2 cells, antibody 10 ug/mL, cells with antibody binding/total cells
# [3] = molecular target: human Claudin18.1 expressed on cells (human) (UniProt P56856); assay: flow cytometry on 293FT CLDN18.1-Luc cells, APC anti-mouse IgG Fc
Binder,binding percentage [1] [%],binding percentage [2] [%],EC50 [3] [nM]
"5-hIgG1Fc (Fc fusion, not shown: a dimerising Fc or GST) QVQLVESGGGLVQTGGSLRLSCAASDSTFSSYIMGWFRQAPGKEREFVAGITWSGGIKDYADSVKGRFTIARDNAKNTVYLQMNSLKPEDAAIYYCAANAIQLTRRSGDYAYWGQGTQVTVSS",2.06,96,–
"1-hIgG1Fc (Fc fusion, not shown: a dimerising Fc or GST) EVQLVGSGGGLVQPGGSLRLSCAASGSILNLMTTGWYRQAPGKQRDLVATITFGGTTNYADSVKGRFTISRDKSKNTAYLQMDNLKPEDTAVYFCYADVIVGFQDRRVAWDAGTQVTVSS",2.75,88.9,–
"8-hIgG1Fc (Fc fusion, not shown: a dimerising Fc or GST) QVQLVESGGGLVQPGGSLRLSCAASGSIFGLNFMGWWRQAPGSQRELVAIATSGGSIQYGDSVKGRFTISRDNAKNTVYLQMASLKPEDTAVYYCNVHTYDFLGRDYWGQGTQVTVSL",2.26,93.9,–
"10-hIgG1Fc (Fc fusion, not shown: a dimerising Fc or GST) QVQLAESGGGLVQPGGSLRLSCAASGNILSINYMGWYRQAPGKERELVATITRGGTTNYQGDLKGRFIISGDNTKDTVYLQMNNLQPEDTAVYYCYFRINFGILGGLRDYWGQGTQVTVSS",2.06,96.1,–
"2-mIgG2aFc (Fc fusion, not shown: a dimerising Fc or GST) EVQLVESGGGLVQPGGSLRLSCAASGNILSINYMGWYRQAPGKERELVATITRGGSTNYQGNLKGRFIISGDNTKDTVYLQMNNLQPEDTAVYYCYFRINFGILGGLRDYWGQGTQVTVSS",–,–,133
